The chains are these.
T1: HOIP (residues 854–1072), Q96EP0
T1 chain: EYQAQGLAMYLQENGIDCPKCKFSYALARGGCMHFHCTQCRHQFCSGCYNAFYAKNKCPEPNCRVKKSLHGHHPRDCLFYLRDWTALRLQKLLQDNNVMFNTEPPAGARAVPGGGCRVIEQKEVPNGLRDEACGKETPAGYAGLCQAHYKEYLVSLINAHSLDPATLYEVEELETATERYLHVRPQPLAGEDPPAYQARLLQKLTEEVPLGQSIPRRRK

B1: STK4 (residues 1–326) wild type K59R (protein)
chain: METVQLRNPPRRQLKKLDEDSLTKQPEEVFDVLEKLGEGSYGSVYKAIHKETGQIVAIRQVPVESDLQEIIKEISIMQQCDSPHVVKYYGSYFKNTDLWIVMEYCGAGSVSDIIRLRNKTLTEDEIATILQSTLKGLEYLHFMRKIHRDIKAGNILLNTEGHAKLADFGVAGQLTDTMAKRNTVIGTPFWMAPEVIQEIGYNCVADIWSLGITAIEMAEGKPPYADIHPMRAIFMIPTNPPPTFRKPELWSDNFTDFVKQCLVKSPEQRATATQLLQHPFVRSAKGVSILRDLINEAMDVKLKRQESQQREVDQDDEENSEEDEMD
B2: STK4 (residues 11–326) wild type K59R (protein)
chain: RRQLKKLDEDSLTKQPEEVFDVLEKLGEGSYGSVYKAIHKETGQIVAIRQVPVESDLQEIIKEISIMQQCDSPHVVKYYGSYFKNTDLWIVMEYCGAGSVSDIIRLRNKTLTEDEIATILQSTLKGLEYLHFMRKIHRDIKAGNILLNTEGHAKLADFGVAGQLTDTMAKRNTVIGTPFWMAPEVIQEIGYNCVADIWSLGITAIEMAEGKPPYADIHPMRAIFMIPTNPPPTFRKPELWSDNFTDFVKQCLVKSPEQRATATQLLQHPFVRSAKGVSILRDLINEAMDVKLKRQESQQREVDQDDEENSEEDEMD
B3: STK4 (residues 1–487) wild type K59R (protein)
chain: METVQLRNPPRRQLKKLDEDSLTKQPEEVFDVLEKLGEGSYGSVYKAIHKETGQIVAIRQVPVESDLQEIIKEISIMQQCDSPHVVKYYGSYFKNTDLWIVMEYCGAGSVSDIIRLRNKTLTEDEIATILQSTLKGLEYLHFMRKIHRDIKAGNILLNTEGHAKLADFGVAGQLTDTMAKRNTVIGTPFWMAPEVIQEIGYNCVADIWSLGITAIEMAEGKPPYADIHPMRAIFMIPTNPPPTFRKPELWSDNFTDFVKQCLVKSPEQRATATQLLQHPFVRSAKGVSILRDLINEAMDVKLKRQESQQREVDQDDEENSEEDEMDSGTMVRAVGDEMGTVRVASTMTDGANTMIEHDDTLPSQLGTMVINAEDEEEEGTMKRRDETMQPAKPSFLEYFEQKEKENQINSFGKSVPGPLKNSSDWKIPQDGDYEFLKSWTVEDLQKRLLALDPMMEQEIEEIRQKYQSKRQPILDAIEAKKRRQQNF

In the experiment the target is T1, HOIP (residues 854–1072), Q96EP0. Kind of experiment: ITC. The conditions noted are these: chain shown with the change.
B1 displayed a Kd of 28.5 µM. In the case of B2 it was 20.9 µM; in that of B3, 115 µM.

In general, Kd refers to a measure of binding affinity in units of concentration. A high value points to weaker binding.
